Experimental data reported in PMC12646664.

Molecular target: Gα-interacting vesicle-associated protein (GIV), endogenous (human (endogenous in THP1)) (UniProt Q3V6T2)
Chain of UniProt Q3V6T2 (Q3V6T2 whole entry): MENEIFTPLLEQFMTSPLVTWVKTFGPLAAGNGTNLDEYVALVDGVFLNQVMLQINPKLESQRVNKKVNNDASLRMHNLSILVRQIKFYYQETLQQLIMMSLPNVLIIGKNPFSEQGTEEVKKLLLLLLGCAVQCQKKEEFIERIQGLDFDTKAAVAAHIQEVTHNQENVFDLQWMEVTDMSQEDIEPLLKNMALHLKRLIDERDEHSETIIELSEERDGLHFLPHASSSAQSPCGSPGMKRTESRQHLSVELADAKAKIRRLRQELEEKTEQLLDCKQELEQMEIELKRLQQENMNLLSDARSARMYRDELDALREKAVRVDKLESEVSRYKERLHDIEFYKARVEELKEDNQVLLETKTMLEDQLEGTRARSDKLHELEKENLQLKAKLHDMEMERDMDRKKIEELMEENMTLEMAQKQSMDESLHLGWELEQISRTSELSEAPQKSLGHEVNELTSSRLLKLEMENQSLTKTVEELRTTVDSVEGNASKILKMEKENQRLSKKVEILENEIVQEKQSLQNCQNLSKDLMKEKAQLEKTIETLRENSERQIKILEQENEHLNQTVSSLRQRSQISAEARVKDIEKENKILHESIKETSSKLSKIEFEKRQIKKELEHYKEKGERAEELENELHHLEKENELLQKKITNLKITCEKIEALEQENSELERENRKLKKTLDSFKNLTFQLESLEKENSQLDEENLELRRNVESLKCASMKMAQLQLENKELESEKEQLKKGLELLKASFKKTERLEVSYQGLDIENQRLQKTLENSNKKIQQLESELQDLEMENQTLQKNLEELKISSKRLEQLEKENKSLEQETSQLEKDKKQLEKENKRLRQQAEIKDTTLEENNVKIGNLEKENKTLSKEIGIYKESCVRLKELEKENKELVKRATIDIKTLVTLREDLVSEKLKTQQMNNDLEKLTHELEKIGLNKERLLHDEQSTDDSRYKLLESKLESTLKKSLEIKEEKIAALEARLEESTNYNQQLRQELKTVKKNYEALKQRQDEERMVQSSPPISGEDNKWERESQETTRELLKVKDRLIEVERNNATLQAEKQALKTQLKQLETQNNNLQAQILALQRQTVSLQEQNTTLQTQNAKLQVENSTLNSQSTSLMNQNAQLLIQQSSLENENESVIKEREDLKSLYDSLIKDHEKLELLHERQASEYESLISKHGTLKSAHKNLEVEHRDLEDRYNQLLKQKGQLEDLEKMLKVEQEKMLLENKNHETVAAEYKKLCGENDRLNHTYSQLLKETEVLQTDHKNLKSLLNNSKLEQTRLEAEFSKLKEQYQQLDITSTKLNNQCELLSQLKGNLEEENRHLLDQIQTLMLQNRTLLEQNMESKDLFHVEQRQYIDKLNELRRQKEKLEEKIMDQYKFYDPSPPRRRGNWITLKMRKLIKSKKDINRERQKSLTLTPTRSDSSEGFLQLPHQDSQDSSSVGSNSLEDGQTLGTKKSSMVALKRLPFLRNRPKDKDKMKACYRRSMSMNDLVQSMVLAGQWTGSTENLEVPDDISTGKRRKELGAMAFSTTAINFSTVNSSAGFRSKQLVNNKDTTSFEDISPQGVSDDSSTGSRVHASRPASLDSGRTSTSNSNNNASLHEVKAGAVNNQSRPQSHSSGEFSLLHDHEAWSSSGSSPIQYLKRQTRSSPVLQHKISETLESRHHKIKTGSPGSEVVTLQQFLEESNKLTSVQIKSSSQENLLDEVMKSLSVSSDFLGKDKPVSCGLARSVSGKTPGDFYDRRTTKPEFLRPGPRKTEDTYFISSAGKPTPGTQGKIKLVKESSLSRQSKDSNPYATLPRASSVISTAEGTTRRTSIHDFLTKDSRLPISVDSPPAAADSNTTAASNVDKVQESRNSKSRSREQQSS

HA-NOD2 1007fs (from UniProt Q9HC29 1-1040) (natural protein)
suppression by MDP pretreatment (10 μg/mL) of LPS (100 ng/mL)-induced NF-κB activation, luciferase reporter assay in HeLa cells with NOD2-1007fs: 20 % protection

HA-NOD2 (wild type) (from UniProt Q9HC29 1-1040) (natural protein)
suppression by MDP pretreatment (10 μg/mL) of LPS (100 ng/mL)-induced NF-κB activation, luciferase reporter assay in HeLa cells with NOD2-WT: 65 % protection

HA-NOD2 G908R (from UniProt Q9HC29 1-1040) (natural protein)
suppression by MDP pretreatment (10 μg/mL) of LPS (100 ng/mL)-induced NF-κB activation, luciferase reporter assay in HeLa cells with NOD2 G908R: 7 % protection

HA-NOD2 R702W (from UniProt Q9HC29 1-1040) (natural protein)
suppression by MDP pretreatment (10 μg/mL) of LPS (100 ng/mL)-induced NF-κB activation, luciferase reporter assay in HeLa cells with NOD2 R702W: 45 % protection
